Consider eleven molecules from patent US20250236669A1 (BIRD ROCK BIO, published 2025).

Assay [1] concerns the target T1, mouse CB1 (on TRex-CHO cells) (mouse, UniProt P47746 1-473).
T1 construct: whole, on cells; also called TRexCHO Mouse CB1
Kind of assay: flow cytometry on cells expressing mouse CB1.

Assay [2] addresses T2, native full length human CB1 receptor (TRex-CHO A156 cells) (human, UniProt P21554 1-472). The assay is described as follows: cell-based or functional assay.
Assay [3] has as its target T3, human CB2 (on TRex-CHO cells) (human, UniProt P34972 1-360).
T3 construct: whole, on cells; also called TRexCHO Human CB2; CB2 expression cell line
The assay is described as follows: flow cytometry, mean fluorescence intensity against antibody concentration, TRex-CHO human CB2 cells. A general note: Flow cytometry measures light scatter and fluorescence of single cells or particles in a stream.

In assay [4] the target is T1, mouse CB1 (on TRex-CHO cells). The assay is described as follows: flow cytometry, mean fluorescence intensity against antibody concentration, TRex-CHO mouse CB1 cells.
Assay [5] concerns the target T2, native full length human CB1 receptor …. The assay is described as follows: cell-based or functional assay. This is another data set of the same source.
For assay [6] the target is unchanged. The assay is described as follows: cell-based or functional assay. This is another data set of the same source.
Assay [7] shares this target. The assay is described as follows: cell-based or functional assay. The source holds these as a separate data set.
For assay [8] the target is unchanged. The assay is described as follows: cell-based or functional assay. This is another data set of the same source.
Assay [9] has the same target. Kind of assay: cell-based or functional assay. The source holds these as a separate data set.
For assay [10] the target is unchanged. The assay is described as follows: cell-based or functional assay. This is another data set of the same source.
Assay [11] has the same target. Kind of assay: cell-based or functional assay. This is another data set of the same source.

T2 sequence (P21554 whole entry): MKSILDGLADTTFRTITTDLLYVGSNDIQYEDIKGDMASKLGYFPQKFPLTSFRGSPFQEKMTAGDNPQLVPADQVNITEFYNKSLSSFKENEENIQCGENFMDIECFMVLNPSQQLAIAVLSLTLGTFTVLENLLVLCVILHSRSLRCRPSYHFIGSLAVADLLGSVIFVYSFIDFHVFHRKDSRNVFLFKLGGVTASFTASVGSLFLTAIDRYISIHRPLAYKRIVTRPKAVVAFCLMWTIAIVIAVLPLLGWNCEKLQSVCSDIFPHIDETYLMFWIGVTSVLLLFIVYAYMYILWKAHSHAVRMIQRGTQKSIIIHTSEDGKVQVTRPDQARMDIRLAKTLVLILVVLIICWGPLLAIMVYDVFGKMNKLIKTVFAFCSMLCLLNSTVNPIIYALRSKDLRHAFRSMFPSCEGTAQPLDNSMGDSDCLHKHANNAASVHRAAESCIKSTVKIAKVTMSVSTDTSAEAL
T1 sequence (P47746 whole entry): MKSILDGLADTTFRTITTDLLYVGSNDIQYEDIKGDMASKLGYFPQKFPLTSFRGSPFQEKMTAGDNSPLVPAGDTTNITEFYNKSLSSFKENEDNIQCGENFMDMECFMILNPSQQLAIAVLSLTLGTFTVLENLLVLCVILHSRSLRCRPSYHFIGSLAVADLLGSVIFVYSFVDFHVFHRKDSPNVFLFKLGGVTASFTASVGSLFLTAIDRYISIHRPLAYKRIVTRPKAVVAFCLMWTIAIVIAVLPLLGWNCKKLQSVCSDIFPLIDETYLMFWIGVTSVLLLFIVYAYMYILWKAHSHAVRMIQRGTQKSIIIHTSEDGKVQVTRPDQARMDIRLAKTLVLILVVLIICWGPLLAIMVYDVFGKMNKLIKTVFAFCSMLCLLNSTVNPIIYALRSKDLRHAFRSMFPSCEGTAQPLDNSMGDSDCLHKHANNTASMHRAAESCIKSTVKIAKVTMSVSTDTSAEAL
T3 sequence (P34972 whole entry): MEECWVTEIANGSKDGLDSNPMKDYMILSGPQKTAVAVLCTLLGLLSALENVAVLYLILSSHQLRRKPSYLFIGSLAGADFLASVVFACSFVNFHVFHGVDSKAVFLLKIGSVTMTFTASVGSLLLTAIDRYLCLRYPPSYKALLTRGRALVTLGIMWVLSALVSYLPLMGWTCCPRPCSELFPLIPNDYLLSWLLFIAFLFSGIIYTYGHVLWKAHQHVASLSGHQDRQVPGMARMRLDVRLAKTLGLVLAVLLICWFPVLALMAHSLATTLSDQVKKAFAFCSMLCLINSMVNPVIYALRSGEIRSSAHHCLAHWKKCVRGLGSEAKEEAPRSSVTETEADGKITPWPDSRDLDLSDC

B1: 36E12B6C2 IgG (antibody, V domains shown)
VH: QVQLQQSGAELVRPGSSVKISCKASGYEFSYYWMNWVKQRPGQGLQWIGQIYPGDGDTNYNGKFKGKATLTADKSSSTAYMHLTSLTSEDSAVYFCARSGGNPFAFWGQGTLVTVSA
VL: DIQMTQTSSSLSASLGDRVTFSCRASQDISNYLNWYQQKPDGTVKLLIYYTSRLHSGVTSRFRGSGSGTDYSLTISNLEQEDVATYFCQQGHTLPWSFGGGTKLEIKR
notes: Hybridoma-derived
For the molecule B1, in [1], the binding result is “no binding”.

B2: PA2LR3-P6G7 (chimeric) (antibody, human IgG1, kappa, V domains shown)
VH: EVQLQQSGAELVRPGSSVKISCKASGFAFSNYWMNWVKQRPGQGLEWIGQIYPGDGDTNFNGKFKGRAILTADISSNTAYMQLSSLTSEDSAVYFCARSHGNYFPYWGQGTLVTVSA
VL: DIVLTQSPAIMSASLGERVTMTCTASSSVSSSYLHWYQQKPGSSPKLWIYSTSNLASGVPARFSGSGSGTSYSLTISSMEAEDAATYYCHQHHRSPPTFGAGTKLELKR
For B2, the “EC50, cAMP agonist functional assay, CB1 TRex CHO cells” value (“EC50, cAMP agonist functional assay” for short) in assay [2] was over 300 nM.

B3: PA2LR3-P6B12 (chimeric) (antibody, human IgG1, kappa, V domains shown)
VH: EVQLQQSGAELVRPGSSVKISCKASGYAFSYYWMNWVKQRPGQGLEWIGQIYPGDGDTNYNGKFKGKATLTADKSSSTAYMQLSSLTSEDSAVYFCARSHGNYFAYWGQGTLVTVSA
VL: QIVLTQSPAIMSASLGERVTMTCTASSSVSSSYLHWYQQKPGSSPKLWIYSTSNLASGVPARFSGSGSGTSYSLTISSMEAEDAATYYCHQYHRSPLAFGAGTKLELKR
Regarding B3, in assay [2], the “EC50, cAMP assay in the presence of CP55940, CB1 TRex CHO cells” value was about 1000 nM.

B4: PA2LR3-P2D3 (chimeric) (antibody, human IgG1, kappa, V domains shown)
VH: EVQLQQSGAELVRPGSSVKISCKASGYAFSYYWMNWVKQRPGQGLEWIGQIYPGDGDTNYNGKFKGKATLTADKSSSTAYMQLSSLTSEDSAVYFCARSHGSYFAYWGQGTLVTVSA
VL: DIELAQSPASLAVSLGQRATISCRASESVDSYGNSFMHWYQQKPGQPPKLLIYLASNLESGVPARFSGSGSRADFTLTIDPVEADDAATYYCLQYASSPPTFGAGTKLEIKR
For B4, the “EC50, cAMP agonist functional assay” value in assay [2] is over 300 nM.

B5: PA2LR3-P4B1 (chimeric) (antibody, human IgG1, kappa, V domains shown)
VH: EVQLQQSGAELVRPGSSVKISCKASGFAFSNYWMNWVKQRPGQGLEWIGQIYPGDGDTNFNGKFKGRAILTADISSNTAYMQLSSLTSEDSAVYFCARSHGNYFPYWGQGTLVTVSA
VL: QIVLTQSPAIMSASLGERVTMTCTASSSVSSSYLHWYQQKPGSSPKLWIYSTSNLASGVPARFSGSGSGTSYSLTISSMEAEDAATYYCHQYHRSPLTFGAGTKLELKR
As to B5, the “EC50, cAMP agonist functional assay” value in [2] is over 300 nM.

B6: P1C4-h2-IgG1 (antibody)
heavy: not shown
light: EIVLTQSPATLSLSPGERATLSCRASQSVSSSYLHWYQQKPGQAPRLLIYSTSNLASGIPARFSGSGSGTDFTLTISRLEPEDFAVYYCHQYHRSPPTFGQGTKVEIKRTVAAPSVFIFPPSDEQLKSGTASVVCLLNNFYPREAKVQWKVDNALQSGNSQESVTEQDSKDSTYSLSSTLTLSKADYEKHKVYACEVTHQGLSSPVTKSFNRGEC
On to B6, for which the binding result in assay [3] and in assay [4] was “no binding (tested: about 300 nM)” throughout.

B7: P1C4-h4-IgG1 (antibody)
heavy: not shown
light: EIVLTQSPATLSLSPGERATLSCRASQSVSSSYLHWYQQKPGQAPRLLIYSTSNLASGIPARFSGSGSGTDFTLTISRLEPEDFAVYYCHQYHRSPPTFGQGTKVEIKRTVAAPSVFIFPPSDEQLKSGTASVVCLLNNFYPREAKVQWKVDNALQSGNSQESVTEQDSKDSTYSLSSTLTLSKADYEKHKVYACEVTHQGLSSPVTKSFNRGEC
notes: also called P1C4-H4 (YENG); P1C4-H4 (YENG)-IgG
With B7, the binding result in [3] and in assay [4] was “no binding (tested: about 300 nM)” throughout.

B8: P1C4-H4-IgG4 (antibody)
heavy: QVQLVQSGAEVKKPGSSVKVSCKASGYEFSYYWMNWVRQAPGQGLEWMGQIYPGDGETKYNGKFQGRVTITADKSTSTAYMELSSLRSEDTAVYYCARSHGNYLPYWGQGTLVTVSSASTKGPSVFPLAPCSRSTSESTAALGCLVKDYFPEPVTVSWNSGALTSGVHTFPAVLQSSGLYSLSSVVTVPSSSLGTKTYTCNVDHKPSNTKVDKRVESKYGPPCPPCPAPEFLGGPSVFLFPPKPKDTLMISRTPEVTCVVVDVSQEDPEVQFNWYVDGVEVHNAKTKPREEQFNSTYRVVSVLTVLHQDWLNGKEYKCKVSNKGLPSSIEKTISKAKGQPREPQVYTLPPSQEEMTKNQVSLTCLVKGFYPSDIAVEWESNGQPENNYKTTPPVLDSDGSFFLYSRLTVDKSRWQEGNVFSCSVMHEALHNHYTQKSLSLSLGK
light: EIVLTQSPATLSLSPGERATLSCRASQSVSSSYLHWYQQKPGQAPRLLIYSTSNLASGIPARFSGSGSGTDFTLTISRLEPEDFAVYYCHQYHRSPPTFGQGTKVEIKRTVAAPSVFIFPPSDEQLKSGTASVVCLLNNFYPREAKVQWKVDNALQSGNSQESVTEQDSKDSTYSLSSTLTLSKADYEKHKVYACEVTHQGLSSPVTKSFNRGEC
B8: in [5], the “IC50, potency (cAMP); at 4 C for 33 days” value is 62 nM and the “IC50, potency (cAMP); at 40 C for 33 days” value was found to be 71 nM. In addition, in [6], the “IC50, cAMP antagonist assay; after 5 freeze/thaw cycles” value worked out at 32 nM. Besides, in assay [7], the “cAMP IC50, antagonist assay; CHO-S batch [n]” value was determined as 51 nM; the “cAMP IC50, antagonist assay; Mean of Batch 1 [n]” value was 54 nM; the “cAMP IC50, antagonist assay; Mean of Batch 2 [n]” value amounted to 54 nM. Further, in [8], the “IC50, cAMP activity; after dialysis to pH 3 and 48 h at 40 C” value came to 139 nM; the “IC50, cAMP activity; after dialysis to pH 9 and 48 h at 40 C” value worked out at 64 nM.

B9: P1C4-h0-IgG1 (antibody, V domains shown)
VH: QVQLVQSGAEVKKPGSSVKVSCKASGGTFSYYWMNWVRQAPGQGLEWMGQIYPGDGETKYAQKFQGRVTITADKSTSTAYMELSSLRSEDTAVYYCARSHGNYLPYWGQGTLVTVSS
VL: EIVLTQSPATLSLSPGERATLSCRASQSVSSSYLHWYQQKPGQAPRLLIYSTSNLASGIPARFSGSGSGTDFTLTISRLEPEDFAVYYCHQYHRSPPTFGQGTKVEIKR
On to B9, for which the binding result in assay [3] is “no binding (tested: about 300 nM)”. Also, in assay [9], the “IC50, cAMP functional assay, native human CB1 TRex-CHO cells” value came to 146 nM. Moreover, in [7], the “cAMP IC50, antagonist assay; Mean of Batch 1 [n]” value turned out to be 158 nM and the “cAMP IC50, antagonist assay; Mean of Batch 2 [n]” value came out at 343 nM. The binding result in assay [4] is reported as “no binding (tested: about 300 nM)”.

B10: P1C4-h2 Fab (Fab, V domains shown)
VH: QVQLVQSGAEVKKPGSSVKVSCKASGYEFSYYWMNWVRQAPGQGLEWMGQIYPGDGETKYAQKFQGRVTITADKSTSTAYMELSSLRSEDTAVYYCARSHGNYLPYWGQGTLVTVSS
VL: EIVLTQSPATLSLSPGERATLSCRASQSVSSSYLHWYQQKPGQAPRLLIYSTSNLASGIPARFSGSGSGTDFTLTISRLEPEDFAVYYCHQYHRSPPTFGQGTKVEIK
With B10, the “IC50 cAMP assay (Fab), CB1 TRex CHO cells” value in assay [10] turned out to be 52 nM. In assay [11], the “IC50 (read off the curve)” value is about 30 nM.

B11: P1C4-h4 Fab (Fab, V domains shown)
VH: QVQLVQSGAEVKKPGSSVKVSCKASGYEFSYYWMNWVRQAPGQGLEWMGQIYPGDGETKYNGKFQGRVTITADKSTSTAYMELSSLRSEDTAVYYCARSHGNYLPYWGQGTLVTVSS
VL: EIVLTQSPATLSLSPGERATLSCRASQSVSSSYLHWYQQKPGQAPRLLIYSTSNLASGIPARFSGSGSGTDFTLTISRLEPEDFAVYYCHQYHRSPPTFGQGTKVEIK
On to B11, for which, in assay [10], the “IC50 cAMP assay (Fab), CB1 TRex CHO cells” value came out at 43 nM. For the same molecule, the “IC50 (read off the curve)” value in [11] was about 40 nM.
